In article PMC4737123:

Key:
[1] = biological target: purified human IgM (non‐specific IgM) (human); test: AUC; sedimentation velocity, 40 000 r.p.m., 20°C, PBS; FV6 alone, IgM alone, and IgM (0.2 μM) with FV6 at molar ratios 1:1, 1:2 and 1:3; continuous size distribution (SEDFIT)
[2] = biological target: purified human IgM (non‐specific IgM) (human); test: SPR; Biacore 2000; IgM (750 RU) immobilised on a CM4 chip by amine coupling; FV6 or FV2 flowed over (1.125-18 nM); HEPES buffer (0.01 M HEPES, 0.15 M NaCl, 3 mM EDTA, 0.005% P20) pH 7.4, 20°C; global 1:1 interaction model

recombinant full‐length HB3VAR06 (FV6), entire ectodomain of the PfEMP1 protein HB3VAR06 (domain or fragment)
stoichiometry N [1]: 2 FV6 per IgM | Kd [2]: 0.1 nM | koff [2]: 0.0003 s⁻¹ | kon [2]: 2.3e+06 M⁻¹ s⁻¹

recombinant full‐length IT4VAR04 (a VAR2CSA‐type PfEMP1; FV2) (natural protein)
Kd [2]: 0.3 nM | koff [2]: 0.00051 s⁻¹ | kon [2]: 1.8e+06 M⁻¹ s⁻¹
